In patent US20230067770A1 (SHANGHAI HENLIUS BIOTECH, published 2023):

Key:
Human CD137-his [1] = molecular target: T1, Human CD137-his (human, UniProt Q07011 24-186); assay: BLI (Octet), second round, antibody captured on AHC sensor
T1 construct: Bought reagent; also called Human CD137-His (Sino Biological, 10041-H08H)
Experimental: (§1) Biolayer interferometry was used to measure the association and dissociation constants for the binding kinetics of the anti-CD137 antibodies. The binding kinetics was measured on a FortieBio Octet Red 96 at 30° C. and analyzed with the FortieBio Data Analysis 9.0 software. Anti-human-IgG Fc (AHC) sensor was used to capture the anti-CD137 antibodies or control antibodies. A kinetic buffer only well was set as a reference well for subtraction during data processing. Data were fitted with a 1:1 Langmuir model for association and dissociation using Rmax linked global fitting for each antibody-antigen binding. Human CD137-his is a recombinant CD137 antigen with a poly histidine tag fused to C-terminus of human CD137 antigen (Sino Biological, 10041-H08H). Cyno CD137-his is a recombinant CD137 antigen with a poly histidine tag fused to C-terminus of cynomolgus CD137 antigen (Sino Biological, 90847-K02H-100).

mouse CD137 = molecular target: T2, mouse CD137 (mouse, UniProt P20334 24-187, limits assumed); assay: biolayer interferometry (Octet Red 96), antibody captured on AHC sensor
T2 sequence (looked up): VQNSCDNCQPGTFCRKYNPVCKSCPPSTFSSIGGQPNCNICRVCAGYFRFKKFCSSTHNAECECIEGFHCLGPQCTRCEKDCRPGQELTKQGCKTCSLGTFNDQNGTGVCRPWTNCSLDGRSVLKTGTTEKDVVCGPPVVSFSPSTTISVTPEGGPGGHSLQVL

Human CD137-his [2] = molecular target: T1, Human CD137-his; assay: BLI (Octet Red 96), antibody captured on AHC sensor, 1:1 Langmuir fit
Experimental: as §1

Cyno CD137-his = molecular target: T3, Cyno CD137-his (cynomolgus monkey, UniProt A9YYE7 24-186); assay: as above
T3 construct: Bought reagent; also called cynomolgus monkey CD137; cynomolgus CD137 (Sino Biological, 90847-K02H-100)
T3 sequence: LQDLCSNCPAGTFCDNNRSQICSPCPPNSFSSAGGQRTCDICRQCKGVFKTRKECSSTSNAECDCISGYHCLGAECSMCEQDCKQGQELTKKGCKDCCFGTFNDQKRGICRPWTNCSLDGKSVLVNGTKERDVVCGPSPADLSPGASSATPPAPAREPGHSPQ
Experimental: as §1

Human CD137-his [3] = molecular target: T1, Human CD137-his; assay: as above; remark: listed apart in the source
Experimental: (§2) Biolayer interferometry was used to measure the association and dissociation constants for the binding kinetics of bispecific antibodies. The binding kinetics was measured on a FortieBio Octet Red 96 at 30° C. and analyzed with the FortieBio Data Analysis 9.0 software. Anti-human-IgG Fc (AHC) sensor was used to capture the bispecific or control antibodies. Double binding was performed by association with the first antigen, then dissociation, and association with the second antigen, then dissociation. A regeneration cycle with 20 mM glycine, pH 1.5 was used between different antibody cycles. The 1×kinetic buffer (FortieBio) was used for baseline. Human CD137-His (Sino Biologicals Cat: 10041-H08H) and rhesus CD137-His protein (Sino Biologicals Cat: 90847-K08H) were diluted into kinetic buffer in a series of concentrations. A kinetic buffer only well was set as a reference well for subtraction during data processing. Data were fitted with a 1:1 Langmuir model for association and dissociation using Rmax linked global fitting for each antibody-antigen binding. Human CD137-his is a recombinant CD137 protein with a poly histidine tag fused to C-terminus of human CD137 antigen (Sino Biological, 10041-H08H). Human EGFR-his is a recombinant EGFR protein with a poly histidine tag fused to C-terminus of human EGFR antigen (Acro Biosystem, EGR-H5222-100 ug).

Human EGFR-his = molecular target: T4, Human EGFR-his (human, UniProt P00533 25-645); assay: as above
T4 construct: Bought reagent; also called EGFR-His (Acro Biosystem, EGR-H5222-100 ug)
Experimental: as §2

B1: Anti-CD137 2-9 IgG2 (antibody, V domains shown)
VH: QVQLVQSGAEVKKPGASVKASCKASGFNIQDTYIHWVRQAPGQGLEWMGRIDPANGNSEYAQKFQGRVTMTRDTSTSTVYMELSSLRSEDTAVYYCTTGNLHYALMDYWGQGTSVTVSS
VL: DIQMTQSPSSVSASVGDRVTITCKASQPINTYLSWYQQKPGKAPKLLIYRVNRKVDGVPSRFSGSGSGTDFTLTISSLQPEDFATYYCLQYLDFPYTFGGGTKLEIKR
notes: also called clone 2-9 IgG2 wt; 2-9 IgG2 wildtype
Kd (Human CD137-his [1]): 5.5 nM
koff (Human CD137-his [1]): 0.000314 s⁻¹
kon (Human CD137-his [1]): 57100 M⁻¹ s⁻¹
binding result (mouse CD137): no binding
Kd (Human CD137-his [2]): 9.33 nM
koff (Human CD137-his [2]): 0.000869 s⁻¹
kon (Human CD137-his [2]): 93100 M⁻¹ s⁻¹
Kd (Cyno CD137-his): 2.76 nM
koff (Cyno CD137-his): 0.000712 s⁻¹
kon (Cyno CD137-his): 258000 M⁻¹ s⁻¹
Kd (Human CD137-his [3]): 4.52 nM
koff (Human CD137-his [3]): 0.000299 s⁻¹
kon (Human CD137-his [3]): 66200 M⁻¹ s⁻¹

B2: Anti-CD137 scFv x anti-EGFR IgG1 HCC (bispecific antibody)
heavy: not shown
light: EIVLTQSPATLSLSPGERATLSCRASQSIGTNIHWYQQKPGQAPRLLIKYASESISGIPARFSGSGSGTDFTLTISSLEPEDFAVYYCQQNNNWPTSFGGGTKVEIKRTVAAPSVFIFPPSDEQLKSGTASVVCLLNNFYPREAKVQWKVDNALQSGNSQESVTEQDSKDSTYSLSSTLTLSKADYEKHKVYACEVTHQGLSSPVTKSFNRGEC
notes: The tie rests on the label only; also called 2-9scFv-αEGFR2-HC-C; anti-CD137×EGFR bispecific antibody
Kd (Human CD137-his [3]): 6.25 nM
koff (Human CD137-his [3]): 0.000116 s⁻¹
kon (Human CD137-his [3]): 18600 M⁻¹ s⁻¹
Kd (Human EGFR-his): 2.45 nM
koff (Human EGFR-his): 0.000991 s⁻¹
kon (Human EGFR-his): 404000 M⁻¹ s⁻¹
